This series addresses Glu286 (UniProt position 286, FFGHPEVYIIV). Description: kinetics.

The pKa is the negative logarithm of the acid dissociation constant.

Regarding “Cytochrome c oxidase (aa3-type) Ser425Ala variant (subunit I) (Rhodobacter sphaeroides; S425A)”, the pKa (~22 °C, not stated (100 mM buffer), 100 mM buffer after 1:5 mixing: MES (pH 6, 6.5), HEPES (pH 7-8), BIS-TRIS propane (pH 7-9), CHES (pH 9, 9.5), CAPS (pH 10-11). Also 0.1 mM EDTA., Fully (four-electron) reduced CytcO reacting with 1 mM O2, P3 intermediate, detergent-solubilised, no membrane potential) is greater than 10.5.

Consider “Cytochrome c oxidase (aa3-type), subunit I carries the titrating residue (Rhodobacter sphaeroides)”, for which, for the setting “Reduced wild-type CytcO reacting with O2, P3->F3 transition, cited from earlier work”, the pKa is reported as 9.4.
